Where no end group is shown, it is not given here.
Tests used:
microglial cells = assay: Immunohistochemistry of microglial activation (OX-42, ED-1); assay type: in vivo, rats; conditions: perihematomal region; L-UCN 2.5 μg/kg i.p.; day 3 post-ICH
Description: (§1) Rats were used in immunohistochemistry on day 3 post-ICH. Rats were anesthetized as described above and transcardially perfused with cold 0.1 M phosphate buffer saline followed by cold 4% paraformaldehyde in 0.1 M phosphate-buffered saline. Brains were removed and immersed in 4% paraformaldehyde for 24 hours and 30% sucrose for another 24 hours. Coronal brain sections (20 μm thickness) were cut and collected from 0.0 to −2.0 mm AP to bregma using a cryostat (Leica CM 1900). Three 20 μm coronal sections, representing the core of the hematoma, were taken starting at 0.0 mm from bregma (the needle entry site). Additional adjacent serial coronal sections taken through the center of the hemorrhagic lesion were processed for the counting of marker-specific cells (Jung et al., 2004). Antibodies of OX-42 (1:100; BD, USA), ED-1 (1:100; BD, USA) were used as microglial markers, and NeuN (1:200, Chemicon, USA) was used as neuron marker. Tissues sections were incubated with the primary antibodies overnight at 4° C. […] The numbers of positive cells in the same focal plane were counted in 6 regions of interest around the ipsilateral striatum (perihematomal region, 1 mm^2) All cell counting was done by an independent investigator counted the positive cells.

IL-6 = assay: Cytokine ELISA of ipsilateral striatal tissue; assay type: in vivo, rats; conditions: L-UCN 2.5 μg/kg i.p.; day 1 post-ICH; vs ICH+Saline
Description: (§2) Rats were used for the cytokine assay by ELISA. The ipsilateral striatal tissues were collected before and on days 1, 3 and 7 days post-ICH. After homogenization in the lysis buffer (PRO-PREP™, iNtRON Biotechnology, Korea) and centrifuged at 12,000 g for 30 minutes, the supernatants were collected and stored frozen at −80° C. During quantification, the cytokines (TNFα, IL-1β and IL-6) were normalized to 100 μg of proteins in the supernatant using a commercial ELISA kit from R & D Systems (Minneapolis, Minn., USA) according to the manufacturer's instructions.

IL-1β = assay: Cytokine ELISA of ipsilateral striatal tissue; assay type: in vivo, rats; conditions: L-UCN 2.5 μg/kg i.p.; days 1, 3 and 7 post-ICH; vs ICH+Saline
Description: as §2

TNF-α = assay: Cytokine ELISA of ipsilateral striatal tissue; assay type: in vivo, rats; conditions: L-UCN 2.5 μg/kg i.p.; days 1, 3 and 7 post-ICH; vs ICH+Saline
Description: as §2

[1] = test system: collagenase-induced ICH rats; assay: modified Neurological Severity Score (mNSS), collagenase-induced ICH model; assay type: in vivo
Description: The ICH refers to hemorrhage in the striatum, a part of the brain. Male Sprague-Dawley rats (250-300 g) anesthetized with chloral hydrate (0.4 g kg^−1 i.p., Sigma-Aldrich, St. Louis, Mo., USA). The blood infusion model of ICH was induced by intrastriatal (0.0 mm posterior, 3.0 mm right, 5.0 mm ventral to bregma skull surface) infusion of autologous blood (100 μl within 1 minute) and stereotaxic administration of bacterial collagenase VII-S into the striatum (MacLellan et al. 2008; Rosenberg et al. 1990). Briefly, bacterial collagenase VII-S (0.23 U in 1.0 μl sterile saline, Sigma-Aldrich) was infused into the striatum over a period of 10 minutes. The needle was kept in place for another 10 minutes to prevent backflow. The craniotomies were sealed with bone wax. The rats were allowed to recover in separate cages at room temperature.
Rats were used in the assessment of the neurological abnormalities with a modified Neurological Severity Score (mNSS) method (Chen et al. 2001) by an investigator blinded to the experimental treatment scheme. The mNSS is a composite test of motor, sensory, and balance functions. The assessment was performed before and on 1, 3 and 7 days after the ICH. Neurological functions were graded on a scale of 0-18 (normal score, 0; maximal deficit score, 18).

[2] = test system: collagenase-induced ICH rats; assay: Assessment of hemorrhagic volume (spectrophotometric assay); assay type: in vivo
Description: Rats were randomly used in assessment of hemorrhagic volume at 24 hours (day 1) post-ICH. The accumulated hemorrhagic volume was quantified by a spectrophotometric assay as reported by Park et al., with minor modification (Park et al., 2005). Briefly, both contralateral and ipsilateral hemispheres were obtained after transcardial perfusion. PBS was added to the individual hemispheres to make-up a total of 3 ml volume for homogenization and centrifugation (15000 g, 30 minutes). The supernatant (40 μl) was reacted with Drabkin's reagent (160 μl, Sigma) for 15 minutes at room temperature. Optical density was measured at 540 nm with a spectrophotometer (Molecular Devices OptiMax, USA). Equivalent hemorrhage volume (μl) of the supernatant was calculated from a standard curve obtained with known amounts of the blood.

NeuN+ cells (neurons) = assay: Immunohistochemistry of neuronal loss (NeuN); assay type: in vivo, rats; conditions: perihematomal region; L-UCN 2.5 μg/kg i.p.; day 3 post-ICH
Description: as §1

[3] = Evaluation of physiological parameters (MABP, heart rate, rectal temperature, blood gases); assay type: in vivo, rats; conditions: for RT (rectal temperature) / pCO2 / pO2 / pH: ICH + L-UCN 2.5 μg/kg i.p.; for decrease in MABP / increase in HR: 1.0 to 3.0 h post-treatment; for pH: arterial blood
Description: Rats were randomly assigned for evaluation of physiological parameters including mean arterial blood pressure, blood gases, body weight changes and body temperature. Under urethane (urethane (1.0 g/kg bodyweight, intraperitoneally, Sigma-Aldrich) anesthesia, a femoral artery was cannulated with a PE-50 polyethylene tube for fluid supplementation and monitoring of arterial blood pressure and blood gas. Arterial blood pressure was recorded through an amplifier (MP35, BIOPAC system, Inc.) and stored in a PC computer. Body temperature (rectal temperature) was automatically maintained at 37.5±0.5° C. by a rectal temperature sensor and a heating pad (CMA-150, Sweden). The physiological parameters were measured before (baseline) and after treatment (UCN or Saline) 0.5, 1 and 3 hours.

[4] = UCN 2.5 μg/kg i.p. 1 h after ICH

In the case of “urocortin (DNPSLSIDLTFHLLRTLLELARTQSQRERAEQNRIIFDSV; ends and bridges not checked; UniProt P55089 83-122, looked up) [UCN, a 40-amino-acid endogenous neuropeptide, belongs to the corticotrophin releasing hormone (CRH) family]”, the “number of ED-1+ cells” value (microglial cells) is reported as 28.50±2.65 cells/6 mm^2, the “number of OX-42+ microglial cells” value (microglial cells) is reported as 82.00±22.86 cells/6 mm^2 and the “IL-6 level of ipsilateral striatum” value (IL-6) is reported as “reduced”. The “IL-1β level of ipsilateral striatum” value (IL-1β) was “significantly reduced”, the “TNF-α level of ipsilateral striatum” value (TNF-α) was “significantly reduced” and the mNSS ([1]; H-UCN 25 μg/kg i.p. 60 min post-ICH, day 1, scale 0-18) was 6.55±0.26. It also gave a mNSS ([1]; H-UCN 25 μg/kg i.p. 60 min post-ICH, day 3, scale 0-18) of 4.68±0.29, a mNSS ([1]; H-UCN 25 μg/kg i.p. 60 min post-ICH, day 7, scale 0-18) of 2.00±0.26 and a mNSS ([1]; L-UCN 2.5 μg/kg i.p. 60 min post-ICH, day 1, scale 0-18) of 3.86±0.70. The mNSS ([1]; L-UCN 2.5 μg/kg i.p. 60 min post-ICH, day 3, scale 0-18) was 1.71±0.55, the mNSS ([1]; L-UCN 2.5 μg/kg i.p. 60 min post-ICH, day 7, scale 0-18) was 1.63±0.46 and the mNSS ([1]; UCN 0.05, 0.5 and 5 μg i.c.v. 1 h after collagenase ICH, over 7 days, most effective at 5 μg, vs ICH+Saline) was “dose-dependent reduction in the mNSS”. The hemorrhagic volume ([2]; L-UCN 2.5 μg/kg i.p., day 1 post-ICH, vs ICH+Saline) was “not significantly different”, the accumulated hemorrhagic volume ([2]; UCN 5 μg i.c.v., 24 h post-ICH, vs ICH+saline) was “not significantly different” and the “NeuN+ cells” value (NeuN+ cells (neurons)) was 397.00±39.74 cells/6 mm^2. For the same substance, the “RT (rectal temperature)” value ([3]; 0.5 h post-treatment) was 36.95 ± 0.03 °C, the pCO2 ([3]; 0.5 h post-treatment) was 45.07 ± 1.05 mmHg and the pO2 ([3]; 0.5 h post-treatment) was 105.24 ± 6.00 mmHg. The “RT (rectal temperature)” value ([3]; 1.0 h post-treatment) was 37.00 ± 0.05 °C, the pCO2 ([3]; 1.0 h post-treatment) was 42.60 ± 2.44 mmHg and the pO2 ([3]; 1.0 h post-treatment) was 107.28 ± 5.35 mmHg. The “RT (rectal temperature)” value ([3]; 3.0 h post-treatment) was 36.97 ± 0.02 °C, the pCO2 ([3]; 3.0 h post-treatment) was 43.25 ± 1.59 mmHg and the pO2 ([3]; 3.0 h post-treatment) was 107.90 ± 5.59 mmHg. The “RT (rectal temperature)” value ([3]; baseline) was 36.92 ± 0.05 °C, the pCO2 ([3]; baseline) was 46.73 ± 1.80 mmHg and the pO2 ([3]; baseline) was 100.00 ± 4.40 mmHg. The “decrease in MABP” value [3, 4] was ≤ 25 mm Hg, the “increase in HR” value [3, 4] was ≤ 35 beats/min and the “mean arterial blood pressure” value ([3]; UCN 5 μg i.c.v., over 3 hours) was “no significant difference”. For the same substance, the “fall in mean arterial blood pressure (MABP)” value ([3]; UCN 25 μg/kg body weight, bolus intraperitoneal injection) was 40-50 mmHg, the “fall of MABP” value ([3]; UCN 25 μg/kg body weight, bolus intravenous injection, vs intraperitoneal) was “much more abrupt fall of MABP” and the “decrease in MABP” value ([3]; UCN 25 μg/kg i.p.) was ≤ 40 mm Hg. The “increase in HR” value ([3]; UCN 25 μg/kg i.p.) was ≤ 45 beats/min, the pH ([3]; 0.5 h post-treatment) was 7.39 ± 0.01 and the pH ([3]; 1.0 h post-treatment) was 7.42 ± 0.01. The pH ([3]; 3.0 h post-treatment) was 7.42 ± 0.01 and the pH ([3]; baseline) was 7.37 ± 0.02.

Reference: patent US8802630B2, “Method of treating brain injury” (Buddhist Tzu Chi General Hospital, priority 2011, dated 2014)
